The values that follow come from article PMC11897156, “Ex.50.T aptamer impairs tumor–stroma cross-talk in breast cancer by targeting gremlin-1”.

The target of data set [1] is T1, Gremlin-1 (recombinant) (UniProt O60565 25-184).
T1 sequence: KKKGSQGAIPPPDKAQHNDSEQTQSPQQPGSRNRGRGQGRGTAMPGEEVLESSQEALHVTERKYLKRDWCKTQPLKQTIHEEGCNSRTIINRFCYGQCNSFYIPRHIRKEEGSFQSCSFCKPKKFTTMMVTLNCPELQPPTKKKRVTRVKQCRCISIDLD
Briefly: SPR; GREM1 immobilized, aptamer 0.062-1 uM, 25 C; kon 3.39e4 M-1 s-1, koff 1.58e-3 s-1; Aptamer refolded 85 C 5 min, 4 C 2 min, 37 C 10 min; ELONA: PBS, 3% BSA block, 1 h; pull-down: 10 mM PBS with Ca2+ and Mg2+, room temperature; SPR at 25 C (buffer not in material); cell binding: serum-free medium, 37 C, 30 min. The note with it: protein: commercial; chain copies: 2; label: biotin (ELONA, pull-down); none stated for SPR; hairpin; predicted stem of 11 bp, 2 internal loops, 1 terminal loop.

In data set [2] the target is T1, Gremlin-1 (recombinant). Description: ELONA; apparent Kd; unit inferred, nM implied by agreement with SPR; GREM1 coated, 200 nM aptamer; Aptamer refolded 85 C 5 min, 4 C 2 min, 37 C 10 min; ELONA: PBS, 3% BSA block, 1 h; pull-down: 10 mM PBS with Ca2+ and Mg2+, room temperature; SPR at 25 C (buffer not in material); cell binding: serum-free medium, 37 C, 30 min. The note with it: protein: commercial; chain copies: 2; label: biotin (ELONA, pull-down); none stated for SPR; hairpin; predicted stem of 11 bp, 2 internal loops, 1 terminal loop.

B1: ex.50.T (structured_RNA)
RNA: UGUGGCAGUUAAGAAUAGAUCUUCGCUGCGAUU
modifications: lowercase u/c in printed sequence probably 2'-F pyrimidines (not stated in material)
As to B1, the figures for the Kd in data set [1] and in data set [2] were 46.7 nM and 37.7 nM, respectively.
